The values that follow come from patent publication US20050152896A1 (Amgen, published 2005).

For experiment [1], the target named is T1, human galanin (mature, processed form) (human, UniProt P22466 33-62, 125I-labelled in the filtration and immunoprecipitation assays; biotinylated in the IGEN assay and in the BIAcore assay of Table 4).
T1 construct: mature; the assays used the mature peptide; also called biotinylated galanin
T1 peptide (looked up): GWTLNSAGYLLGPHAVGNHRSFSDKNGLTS
Put plainly: BIAcore SPR; biotinylated galanin on a streptavidin chip, MAb flowed. The procedure: The galanin binding assay uses the ORIGEN technology (IGEN, Gaithersburg, Md.) and measures solution state binding. 0.75 μg/ml biotinylated galanin and 2 μg/ml ORI-TAG anti-mouse IgG were preincubated with serially diluted MAbs. 0.4 mg/ml streptavidin-coated Dyna beads were added, incubated, and read on an IGEN M8 Analyzer. In the plasmon surface resonance assay, biotinylated galanin was bound to a streptavidin-coated sensor chip and MAbs allowed to pass through the flow cells in order to generate on and off rates. In every assay tested, the MAbs ranked in virtually the same order.
Background: SPR reads the build-up and loss of mass on a sensor chip optically.

The target in experiment [2] is T2, murine galanin (mature, processed form) (murine, UniProt P47212 33-61, not fully specified).
T2 construct: mature
T2 peptide (looked up): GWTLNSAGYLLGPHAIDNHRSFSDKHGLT
Put plainly: epitope mapping.

Experiment [3] has as its target T1, human galanin (mature, processed form). Put plainly: BIAcore 3000; IgG captured by goat anti-human IgG Fc on CM5, human galanin peptide flowed; 1:1 Langmuir fit. From the text:
In terms of ELISA signal, the top 17 Fab fragments consisted of various combinations of three light chains and five heavy chains. For example, the heavy variable region of Fab P1A7 was identical to the heavy variable regions of Fabs R2E9 and R2E8. The five heavy variable regions were amplified by PCR and the PCR products were subcloned into a human IgG1 heavy chain mammalian expression vector, pVE414N. The three light variable region products were amplified by PCR and were subcloned into a human kappa light chain mammalian expression vector, pDC414N. The sequences of the heavy and light chains constructs were confirmed by DNA sequencing. Fab fragment P1A7 yielded the strongest ELISA signal. To determine which heavy or light variable regions might yield the highest affinity antibody, each heavy chain was co-expressed with the P1A7 light chain, and each light chain was co-expressed with the P1A7 heavy chain. These IgG heavy and light chain combinations were expressed in […] and were purified from the cell culture medium using protein A affinity chromatography. Affinities of these purified antibodies were measured on a BIAcore 3000. Goat anti-human IgG Fc antibody immobilized on CM5 sensor chips was used to capture P1A7 and the variants. Human galanin peptide was flowed over the chip surface with captured anti galanin antibody. The binding kinetics was analyzed using the model fit of 1:1 Langmuir+local Rmax+Mass Transfer. […] Antibodies with P1A7 light chain paired with the five different heavy chains yield nearly identical dissociation constants.

B1: murine monoclonal antibody 2E11 (antibody, V domains shown)
VH: EIQLQQSGAEVMKPGASVKISCKATGYTFSNYWIEWIKQRPGHGLEWIGEILPGSESTKYNEKFKGKATFTTDTSSNTAYMQLSSLTSEDSAVYYCATFYGGFDYWGQGTTLTVSS
VL: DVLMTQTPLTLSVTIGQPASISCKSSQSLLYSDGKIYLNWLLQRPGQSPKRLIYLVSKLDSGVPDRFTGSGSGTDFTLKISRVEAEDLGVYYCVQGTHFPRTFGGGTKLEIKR
notes: the legend is followed
What is called Kd is the equilibrium constant for the complex coming apart. Turning to B1, in experiment [1], the Ka was 5e+08 M⁻¹ and binding was put at a Kd of 2.1 nM. The binding result in experiment [2] was “binds”.

B2: murine monoclonal antibody 4B3 (antibody, mouse IgG1, V domains shown)
VH: EIQLQQSEAELVKPGASVRLSCATSGFNIKDYYIHWVKQTTEQGLEWIGRIDPEDGETEYAPKFQGKATIAADTSSNTAYLLLNSLSSEDTAVYYCTRGYASWGQGTTLTVSS
VL: DVLMTQTPLSLSVSLGDQASISCRSSQSFVHSDGNTYLEWYLQKSGQSPKLLIYKVSNRFSGVPDRFSGSGSGTDFTLKINRVEAEDLGVYYCFQGSHVPYTFGGGTKLEIKR
notes: purified from ascites
In experiment [1], B2 showed a Ka of 1.4e+10 M⁻¹ and a Kd of 0.07 nM. The binding result in experiment [2] is “binds”.

B3: murine monoclonal antibody 2H9 (antibody, mouse IgG1, V domains shown)
VH: EIQLQQSEAELVKPGASVRLSCATSGFNIKDYYIHWVKQTTEQGLEWIGRIDPEDGETEYAPKFQGKATIAADTSSNTAYLLLNSLSSEDTAVYYCTRGYASWGQGTTLTVSS
VL: DVLMTQTPLSLSVSLGDQASISCRSSQSFVHSDGNTYLEWYLQKSGQSPKLLIYKVSNRFSGVPDRFSGSGSGTDFTLKINRVEAEDLGVYYCFQGSHVPYTFGGGTKLEIKR
In experiment [1], B3 gave a Ka of 6.7e+09 M⁻¹ and a Kd of 0.15 nM.

B4: murine monoclonal antibody 1G12 (antibody, mouse IgG1, V domains shown)
VH: EVQLQQSGAELVKPGASVQLSCTASGFNIKDYYIHWVQQRTEQGLEWIGRIDPEDGEIEYAPKFQDKATITADTSSNTAYLQLSSLTSEDSAVYYCTRGYASWGQGTTLTVSS
VL: DVLMTQTPLSLPVSLGDQASISCRSSQTFVHSDGNTYLEWYLQKPGQSPKLLIYKVSNRFSGVPDRFSGSGSGTDFTLKISRVEAEDLGVYYCFQGSHVPYTFGGGTKLEIKR
notes: The legend prints 'murine 1G2' for the VH
For the molecule B4, in experiment [1], the Ka came out at 9.3e+09 M⁻¹ and the Kd is 0.11 nM. Also, the binding result in experiment [2] is given as “binds”.

B5: murine monoclonal antibody 1D7 (antibody, mouse IgG1, V domains shown)
VH: EIQLQQSEAELVKPGASVRLSCATSGFNIKDYYIHWVKQTTEQGLEWIGRIDPEDGETEYAPKFQGKATIAADTSSNTAYLLLNSLSSEDTAVYYCTRGYASWGQGTTLTVSS
VL: DVLMTQTPLSLSVSLGDQASISCRSSQSFVHSDGNTYLEWYLQKSGQSPKLLIYKVSNRFSGVPDRFSGSGSGTDFTLKINRVEAEDLGVYYCFQGSHVPYTFGGGTKLEIKR
notes: purified from ascites; also called hybridoma 1D7D1 (ATCC PTA-5650)
Take B5: in experiment [1], the Ka amounted to 1.5e+10 M⁻¹ and the Kd was 0.09 nM. For the same molecule, the binding result in experiment [2] is “binds”.

B6: murine monoclonal antibody 2F8 (antibody, mouse IgG1, V domains shown)
VH: EVQLQQSGAELVRPGALVKLSCKASGFNIEDYYIHWVRQRPEEGLEWIGRIDPENGNTIYDPKFQGKASLTADTSSNTAYLQLSSLTSEDTAVYFCARGYVDWGQGTLVTVSA
VL: DVLMTQTPLSLPVSLGDQASISCRSSQSIVHSDGDTYLEWYLQKPGQSPKLLIYKVSNRFSGVPDRFSGSGSGTDFTLKIIRVEAEDLGLYFCFQGSHVPYTFGGGTKLEIKR
For B6, in experiment [1], the Ka came out at 6.8e+09 M⁻¹ and binding was characterised by a dissociation constant (Kd) of 0.15 nM. Further, the binding result in experiment [2] is recorded as “binds”.

B7: murine monoclonal antibody 5B4 (antibody, mouse IgG2a, V domains shown)
VH: EVQLQQSGAELVRPGALVKLSCKASGFNIEDYYMHWVRQRPEEGLEWIGRIDPENGNTIYDPKFQGKASITADTSSNTAYLQLSSLTSEDTAVYYCVRGYVDWGQGTLVTVSA
VL: DVLMTQTPLSLPVSLGDQASISCRSSQSIVHSDGDTYLEWYLQKAGQSPKLLIYKVSNRFSGVPDRFSGSGSGTDFTLKISRVEAEDLGLYYCFQGSHVPYTFGGGTKLEIKR
notes: purified from ascites; also called hybridoma 5B4C1 (ATCC PTA-5651)
In experiment [1], B7 returned a Ka of 7.5e+09 M⁻¹ and a Kd of 0.13 nM. In addition, the binding result in experiment [2] is recorded as “binds”.

B8: murine monoclonal antibody 1A1 (antibody, V domains shown)
VH: EIQLQQSEAELVRPGALVKLSCKTSGFNIKDYYMHWVKQRPEQGLEWIGRIDPENDNSIYDPNFQGKASITADTSSNTAYLQLSSLTSEDTAVYYCVRGYVDWGQGTLVTVSA
VL: DVLMTQTPLSLPVSLGDQASISCRSSQSIVHSDGDTYLEWYLQKPGQSPKLLIFKVSNRFSGVPDRFSGSGSGTDFTLKISRVEAEDLGVYYCFQGSHVPYTFGGGTKLEIKR
notes: the legend is followed
On to B8, for which, in experiment [1], the Ka is 2.5e+09 M⁻¹ and the dissociation constant (Kd) was 0.4 nM.

B9: humanized 5B4 IgG1: light chain zu5B4 v04 with heavy chain zu5B4 v04 (antibody, V domains shown)
VH: EVQLVQSGAEVKKPGATVKISCKVSGFNIEDYYMHWVQQAPGKGLEWMGRIDPENGNTIYDPKFQGRVTITADTSTNTAYLDLSSLRSEDTAVYYCARGYVDWGQGTLVTVSS
VL: DVVMTQSPLSLPVTLGQPASISCRSSQSIVHSDGDTYLEWYLQRPGQSPMLLIYKVSNRFSGVPDRFSGSGSGTDFTLKITRVEAEDVGVYYCFQGSHVPYTFGGGTKVEIKR
notes: also called P1A7 (as IgG1); humanized 5B4-v4
Usually koff stands for a measure of how fast the partners let go of each other. The kon is a measure of how fast the partners come together. Consider B9, for which, in experiment [3], the Kd was determined as 1.8 nM, the koff is 0.0059 s⁻¹ and the kon was 3.3e+06 M⁻¹ s⁻¹.

B10: humanized 5B4 IgG1: light chain zu5B4 v13 with heavy chain zu5B4 v04 (antibody, V domains shown)
VH: EVQLVQSGAEVKKPGATVKISCKVSGFNIEDYYMHWVQQAPGKGLEWMGRIDPENGNTIYDPKFQGRVTITADTSTNTAYLDLSSLRSEDTAVYYCARGYVDWGQGTLVTVSS
VL: DVVMTQSPLSLPVTLGQPASISCRSSQSIVHSDGDTYLEWYQQRPGQSPMLLIYKVSNRFSGVPDRFSGSGSGTDFTLKITRVEAEDVGVYYCFQGSHVPYTFGGGTKVEIKR
notes: Human IgG1 / human kappa, expressed in E5 cells; VH of humanized 5B4-v4, VL of humanized 5B4-v13
With B10, in experiment [3], the Kd turned out to be 2 nM, the koff was found to be 0.007 s⁻¹ and the kon was determined as 3.5e+06 M⁻¹ s⁻¹.

B11: humanized 5B4 IgG1: light chain zu5B4 v04 with heavy chain zu5B4 v06 (antibody, V domains shown)
VH: EVQLVQSGAEVKKPGATVKISCKVSGFNIEDYYMHWVQQAPGKGLEWIGRIDPENGNTIYDPKFQGRATITADTSTNTAYLDLSSLRSEDTAVYYCARGYVDWGQGTLVTVSS
VL: DVVMTQSPLSLPVTLGQPASISCRSSQSIVHSDGDTYLEWYLQRPGQSPMLLIYKVSNRFSGVPDRFSGSGSGTDFTLKITRVEAEDVGVYYCFQGSHVPYTFGGGTKVEIKR
notes: Human IgG1 / human kappa, expressed in E5 cells; VH of humanized 5B4-v6, VL of humanized 5B4-v4
Regarding B11, in experiment [3], the Kd is 1.6 nM, the koff was determined as 0.0051 s⁻¹ and the kon is 3.2e+06 M⁻¹ s⁻¹.

B12: humanized 5B4 IgG1: light chain zu5B4 v04 with heavy chain zu5B4 v11 (antibody, V domains shown)
VH: EVQLVQSGAEVKKPGATVKISCKVSGFNIEDYYMHWVQQAPGKGLEWMGRIDPENGNTIYDPKFQGRVTITADTSTNTAYMDLSSLRSEDTAVYYCARGYVDWGQGTLVTVSS
VL: DVVMTQSPLSLPVTLGQPASISCRSSQSIVHSDGDTYLEWYLQRPGQSPMLLIYKVSNRFSGVPDRFSGSGSGTDFTLKITRVEAEDVGVYYCFQGSHVPYTFGGGTKVEIKR
notes: Human IgG1 / human kappa, expressed in E5 cells; VH of humanized 5B4-v11, VL of humanized 5B4-v4
Regarding B12, in experiment [3], the Kd is 1.7 nM, the koff is 0.0056 s⁻¹ and the kon stood at 3.2e+06 M⁻¹ s⁻¹.

B13: humanized 5B4 IgG1: light chain zu5B4 v04 with heavy chain zu5B4 v13 (antibody, V domains shown)
VH: EVQLVQSGAEVKKPGATVKISCKVSGFNIEDYYMHWVQQAPGKGLEWIGRIDPENGNTIYDPKFQGRVTITADTSTNTAYMDLSSLRSEDTAVYYCARGYVDWGQGTLVTVSS
VL: DVVMTQSPLSLPVTLGQPASISCRSSQSIVHSDGDTYLEWYLQRPGQSPMLLIYKVSNRFSGVPDRFSGSGSGTDFTLKITRVEAEDVGVYYCFQGSHVPYTFGGGTKVEIKR
notes: Human IgG1 / human kappa, expressed in E5 cells; VH of humanized 5B4-v13, VL of humanized 5B4-v4
For the molecule B13, in experiment [3], the Kd is 1.8 nM, the koff is 0.005 s⁻¹ and the kon is 2.8e+06 M⁻¹ s⁻¹.

B14: humanized 5B4 IgG1: light chain zu5B4 v04 with heavy chain zu5B4 v12 (antibody, V domains shown)
VH: EVQLVQSGAEVKKPGATVKISCKVSGFNIEDYYMHWVQQAPGKGLEWMGRIDPENGNTIYDPKFQGRATITADTSTDTAYLDLSSLRSEDTAVYYCARGYVDWGQGTLVTVSS
VL: DVVMTQSPLSLPVTLGQPASISCRSSQSIVHSDGDTYLEWYLQRPGQSPMLLIYKVSNRFSGVPDRFSGSGSGTDFTLKITRVEAEDVGVYYCFQGSHVPYTFGGGTKVEIKR
notes: Human IgG1 / human kappa, expressed in E5 cells; VH of humanized 5B4-v12, VL of humanized 5B4-v4
On to B14, for which, in experiment [3], the Kd is 1.5 nM, the koff came out at 0.0048 s⁻¹ and the kon was 3.2e+06 M⁻¹ s⁻¹.

B15: humanized 5B4 IgG1: light chain zu5B4 v05 with heavy chain zu5B4 v04 (antibody, V domains shown)
VH: EVQLVQSGAEVKKPGATVKISCKVSGFNIEDYYMHWVQQAPGKGLEWMGRIDPENGNTIYDPKFQGRVTITADTSTNTAYLDLSSLRSEDTAVYYCARGYVDWGQGTLVTVSS
VL: DVVMTQSPLSLPVTLGQPASISCRSSQSIVHSDGDTYLEWYQQRPGQSPMSLIYKVSNRFSGVPDRFSGSGSGTDFTLKITRVEAEDVGVYYCFQGSHVPYTFGGGTKVEIKR
notes: Human IgG1 / human kappa, expressed in E5 cells; VH of humanized 5B4-v4, VL of humanized 5B4-v5
Consider B15, for which, in experiment [3], the Kd was found to be 2.3 nM, the koff was 0.0095 s⁻¹ and the kon was determined as 4.2e+06 M⁻¹ s⁻¹.
